Test results from PMC11169542, “A probe for NIR-II imaging and multimodal analysis of early Alzheimer’s disease by targeting CTGF” (Nature Communications, 2024).
Ends that are not written are not given here.

Assays:
CTGF [1] = molecular target: T1, CTGF (Mus musculus, UniProt P29268); assay: Ex vivo NIR-II imaging of perfused brains after DGC injection; format: in vivo, APP/PS1 mice; conditions: 20 mg/kg i.v., saline perfusion, relative to 1 month
T1 construct: brain sections of the age-matched wild-type C57BL/6J mice were used as controls; from tissue; host or cells: brain of APP/PS1 transgenic and wild-type C57BL/6J mice (sections, living animal, perfused isolated brain)
T1 sequence (P29268 26-348): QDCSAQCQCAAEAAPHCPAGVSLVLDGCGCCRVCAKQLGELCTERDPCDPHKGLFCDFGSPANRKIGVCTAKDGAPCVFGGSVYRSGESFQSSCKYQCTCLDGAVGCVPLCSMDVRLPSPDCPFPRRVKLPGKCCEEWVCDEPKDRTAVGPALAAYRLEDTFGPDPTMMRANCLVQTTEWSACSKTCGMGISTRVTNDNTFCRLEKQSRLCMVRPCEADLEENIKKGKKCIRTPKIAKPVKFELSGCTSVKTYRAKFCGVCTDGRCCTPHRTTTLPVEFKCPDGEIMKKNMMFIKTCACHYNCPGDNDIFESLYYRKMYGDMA
Experimental: Mice were then perfused intracardially with saline and 4% PFA, and major organs (including the brain, heart, liver, spleen, lung, and kidney were isolated. The dissociated brains were performed NIR-II imaging ex vivo using the same method as in vivo imaging (n = 3). All isolated organs were also imaged by the NIR-II imaging system (λ ex = 808 nm, 1000 nm longpass (LP) filter (Edmund Optics)). And then, the brains were kept in 4% PFA overnight and embedded with paraffin. Sections with 5-μm thickness were cut and analyzed by immunostaining with antibodies to CTGF (dilution 1: 50, Abcam, Cat#ab6992), GFAP (dilution 1:100, Proteintech, Cat#16825-1-AP), CD31 (dilution 1:200, Beyotime, Cat#AF6408), Neun (dilution 1:300, abcam, Cat# ab177487), and Iba 1 (dilution 1:50, Beyotime, Cat# AF7143), respectively.

CTGF [2] = molecular target: T2, CTGF (Homo sapiens, UniProt P29279); assay: DAB chromogenic imaging of DGC-labelled human brain sections; set-up: The brain tissue samples of autopsy-confirmed AD patients were obtained from the Chinese Brain Bank Center; from tissue; host or cells: postmortem human brain sections (hippocampus, cortex) of AD patients and healthy controls; conditions: 200 μM DGC 4 °C overnight + DAB
T2 sequence (P29279 27-349): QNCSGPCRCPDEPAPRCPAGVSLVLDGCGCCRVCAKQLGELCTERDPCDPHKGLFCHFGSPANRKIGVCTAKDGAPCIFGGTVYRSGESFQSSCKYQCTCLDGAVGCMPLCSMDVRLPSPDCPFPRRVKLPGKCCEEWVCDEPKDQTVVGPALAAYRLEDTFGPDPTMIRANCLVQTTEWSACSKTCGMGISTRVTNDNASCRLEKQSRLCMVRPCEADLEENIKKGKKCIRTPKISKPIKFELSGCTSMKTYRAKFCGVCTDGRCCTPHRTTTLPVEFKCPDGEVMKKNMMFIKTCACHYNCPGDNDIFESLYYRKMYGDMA
Experimental: The brain tissue samples of autopsy-confirmed AD patients were obtained from the Chinese Brain Bank Center (CBBC) and Human Brain Bank, Central South University Xiangya School of Medicine. First, the brain sections were air-dried for 15 min at room temperature, followed by immersion in water. 5% H2O2 was applied for 15 min at room temperature. The sections were washed three times with PBS for 5 min each time. Then, tissue repair was performed using trypsin at a temperature of 37 °C for 5 min and washed three times with PBS. We chose 10% sheep serum to block for a duration of 20 min at 37°. Primary antibodies (CTGF antibody and Aβ antibody) were added to the sections overnight at 4 °C. FITC-labeled Goat Anti-Rabbit IgG (H + L) (1: dilution 1:200, Bioss, Cat#bs-0370R-FITC) was applied and incubated at 37 °C for 20 min in darkness. Subsequent washing steps involved rinsing the sections three times with PBS, each time lasting for 5 min while avoiding exposure to light. DAPI staining was performed, taking care to store the samples away from light during the 5-min procedure. Then observed by the CLSM system. Then, we chose the optimal incubation concentration of DGC (200 μM) was used to determine the conditions using DAB Horseradish Peroxidase Color Development Kit. After the brain sections were co-stained by DGC (200 μM) at 4 °C overnight, a DAB chromogenic agent was added to the brain tissue sections to explore whether DGC can catalyze DAB solutions to produce insoluble brown precipitate to attach the brain tissue sections with an optical microscope. Finally, the brain tissue sections were digested with aqua regia to measure the Au content by the ICP-MS system.

CTGF [3] = molecular target: T1, CTGF; assay: DAB chromogenic imaging of DGC-labelled mouse brain sections; set-up: species or system APP/PS1 and wild-type C57BL/6J mice; conditions: 200 μM DGC + DAB
Experimental: To observe the expression level of CTGF in the brain section with the naked eye, we optimized the conditions for labeling WT mice, 3-month-old APP/PS1 mice and 9-month-old APP/PS1 mice stained with DGC. According to the study, the optimal incubation concentration of DGC (200 μM) was used to determine the conditions using the DAB Horseradish Peroxidase Color Development Kit. After the brain sections were co-stained by DGC (200 μM) at 4 °C overnight, a DAB chromogenic agent was added to the brain sections. […] After the brown product was imaged by optical microscopy and analyzed by Image Pro Plus software.

ex vivo NIR-II fluorescence (FL) intensity in brain (CTGF [1]; 1-month-old APP/PS1 mice, brain 1): 1
ex vivo NIR-II fluorescence (FL) intensity in brain (CTGF [1]; 1-month-old APP/PS1 mice, brain 2): 1
ex vivo NIR-II fluorescence (FL) intensity in brain (CTGF [1]; 1-month-old APP/PS1 mice, brain 3): 1
ex vivo NIR-II fluorescence (FL) intensity in brain (CTGF [1]; 2-month-old APP/PS1 mice, brain 1): 1.473
ex vivo NIR-II fluorescence (FL) intensity in brain (CTGF [1]; 2-month-old APP/PS1 mice, brain 2): 1.458
ex vivo NIR-II fluorescence (FL) intensity in brain (CTGF [1]; 2-month-old APP/PS1 mice, brain 3): 1.501
ex vivo NIR-II fluorescence (FL) intensity in brain (CTGF [1]; 3-month-old APP/PS1 mice, brain 1): 1.722
ex vivo NIR-II fluorescence (FL) intensity in brain (CTGF [1]; 3-month-old APP/PS1 mice, brain 2): 1.714
ex vivo NIR-II fluorescence (FL) intensity in brain (CTGF [1]; 3-month-old APP/PS1 mice, brain 3): 1.766
ex vivo NIR-II fluorescence (FL) intensity in brain (CTGF [1]; 6-month-old APP/PS1 mice, brain 1): 2.766
ex vivo NIR-II fluorescence (FL) intensity in brain (CTGF [1]; 6-month-old APP/PS1 mice, brain 2): 2.744
ex vivo NIR-II fluorescence (FL) intensity in brain (CTGF [1]; 6-month-old APP/PS1 mice, brain 3): 2.849
ex vivo NIR-II fluorescence (FL) intensity in brain (CTGF [1]; 9-month-old APP/PS1 mice, brain 1): 3.728
ex vivo NIR-II fluorescence (FL) intensity in brain (CTGF [1]; 9-month-old APP/PS1 mice, brain 2): 3.62
ex vivo NIR-II fluorescence (FL) intensity in brain (CTGF [1]; 9-month-old APP/PS1 mice, brain 3): 3.948
DAB chromogenic intensity (CTGF [2]; AD 1, Cortex section): 0.04756
DAB chromogenic intensity (CTGF [2]; AD 1, Hippocampus section): 0.01899
DAB chromogenic intensity (CTGF [2]; AD 2, Cortex section): 0.04585
DAB chromogenic intensity (CTGF [2]; AD 2, Hippocampus section): 0.0257
DAB chromogenic intensity (CTGF [2]; HC 1, Cortex section): 0.0065
DAB chromogenic intensity (CTGF [2]; HC 1, Hippocampus section): 0.00154
DAB chromogenic intensity (CTGF [2]; HC 2, Cortex section): 0.008159
DAB chromogenic intensity (CTGF [2]; HC 2, Hippocampus section): 0.005
DAB chromogenic imaging intensity (CTGF [3]; 3-month-old APP/PS1 mouse brain section, section 1): 0.198
DAB chromogenic imaging intensity (CTGF [3]; 3-month-old APP/PS1 mouse brain section, section 2): 0.151
DAB chromogenic imaging intensity (CTGF [3]; 3-month-old APP/PS1 mouse brain section, section 3): 0.127
DAB chromogenic imaging intensity (CTGF [3]; 9-month-old APP/PS1 mouse brain section, section 1): 0.282
DAB chromogenic imaging intensity (CTGF [3]; 9-month-old APP/PS1 mouse brain section, section 2): 0.35
DAB chromogenic imaging intensity (CTGF [3]; 9-month-old APP/PS1 mouse brain section, section 3): 0.237
DAB chromogenic imaging intensity (CTGF [3]; WT mouse brain section, Image Pro Plus, section 1): 0.03
DAB chromogenic imaging intensity (CTGF [3]; WT mouse brain section, Image Pro Plus, section 2): 0.061
DAB chromogenic imaging intensity (CTGF [3]; WT mouse brain section, Image Pro Plus, section 3): 0.019
Substance: DGC: CTGF-targeting peptide-coated gold nanocluster: one Au26 gold nanocluster coated by eight DAG cyclic peptides, NIR-II and red fluorescence (CDAGRKQKC; also: cyclic peptide, ring not given here, eight peptides on one Au26 nanocluster via Cys Au-S bonds)
